From publication PMC3915414

Legend:
Test in all cases: solid-phase binding assay
[1] = target: alpha-dystroglycan from dystrophin/utrophin-deficient (dko) mouse heart (mouse (endogenous in heart)) (UniProt Q62165)
[2] = target: alpha-dystroglycan from dystrophin-deficient (mdx) mouse heart (mouse (endogenous in heart)) (UniProt Q62165)
[3] = target: alpha-dystroglycan from wild-type (C57BL/10) mouse heart (mouse (endogenous in heart)) (UniProt Q62165)

Kd [1]: 18.8 nM | Kd [2]: 33 nM | Kd [3]: 21.2 nM
Substance: Engelbreth-Holm-Swarm (EHS) laminin (from UniProt P19137 25-3083; P02469 22-1786; P02468 34-1607) (complex)
